Measured values published in publication PMC2628434.
Substitutions are numbered along the chain they refer to. Numbers in names are those of the source.

T1: LuxR (Vibrio harveyi, UniProt P21308 1-205)
T1 sequence: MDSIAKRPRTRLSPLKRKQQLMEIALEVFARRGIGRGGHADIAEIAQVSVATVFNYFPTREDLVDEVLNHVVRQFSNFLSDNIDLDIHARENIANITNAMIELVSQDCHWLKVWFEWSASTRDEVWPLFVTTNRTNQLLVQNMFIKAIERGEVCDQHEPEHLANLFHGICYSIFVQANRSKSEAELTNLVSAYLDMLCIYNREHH

B1: VPA0649 (dsDNA)
DNA 1: ATTCCTTATTTACCAATTTATAAACTATGAA
DNA 2: TTCATAGTTTATAAATTGGTAAATAAGGAAT
B2: qrgB WT (dsDNA)
DNA 1: TGTTTATATTGAGTTCACAATCAATACCGATCA
DNA 2: TGATCGGTATTGATTGTGAACTCAATATAAACA
B3: qrgB A2C A17C (dsDNA)
DNA 1: B2 DNA 1 with A8C, A23C
DNA 2: B2 DNA 2 with T11G, T26G
B4: qrgB A6C (dsDNA)
DNA 1: B2 DNA 1 with A12C
DNA 2: B2 DNA 2 with T22G
B5: qrgB A2C (dsDNA)
DNA 1: B2 DNA 1 with A8C
DNA 2: B2 DNA 2 with T26G
B6: qrgB A17C (dsDNA)
DNA 1: B2 DNA 1 with A23C
DNA 2: B2 DNA 2 with T11G
B7: qrr4 A17C (dsDNA)
DNA 1: CATTTTTCTGATAAATGTATTCGTAGCAATG
DNA 2: CATTGCTACGAATACATTTATCAGAAAAATG
B8: qrr4 T15C (dsDNA)
DNA 1: B7 DNA 1 with T20C, C22A
DNA 2: B7 DNA 2 with G10T, A12G
B9: qrr4 A6C (dsDNA)
DNA 1: B7 DNA 1 with A11C, C22A
DNA 2: B7 DNA 2 with G10T, T21G
B10: qrr4 WT (dsDNA)
DNA 1: B7 DNA 1 with C22A
DNA 2: B7 DNA 2 with G10T
B11: qrr4 A6C A17C (dsDNA)
DNA 1: B7 DNA 1 with A11C
DNA 2: B7 DNA 2 with T21G
B12: VP0944/5 (dsDNA)
DNA 1: TAGAGTTAGTATCAATTTAATCAATAAGATA
DNA 2: TATCTTATTGATTAAATTGATACTAACTCTA
B13: VPA0197/8 (dsDNA)
DNA 1: TAAGGTAAATAATTATTTTAACAATAATTAA
DNA 2: TTAATTATTGTTAAAATAATTATTTACCTTA
B14: VPA0226/7 (dsDNA)
DNA 1: ACCAAAATTGATAAAATGAATAATTAGATAT
DNA 2: ATATCTAATTATTCATTTTATCAATTTTGGT
B15: Consensus (dsDNA)
DNA 1: ACTGATATTGATAAATTTATCAATAATGACT
DNA 2: AGTCATTATTGATAAATTTATCAATATCAGT
B16: VP0057/8 (dsDNA)
DNA 1: AACATTACTGATAAATTAGATATTTATGGCT
DNA 2: AGCCATAAATATCTAATTTATCAGTAATGTT
B17: Negative control (dsDNA)
DNA 1: ACTGACTGACTGACTGACTGACTGACTGACT
DNA 2: AGTCAGTCAGTCAGTCAGTCAGTCAGTCAGT

Each binder was assayed against T1, LuxR (assay: fluorescence anisotropy).

Binder	Kd [nM]
B1	30 ± 8
B2	27 ± 3
B3	242 ± 46
B4	44 ± 5
B5	27 ± 4
B6	43 ± 6
B7	38 ± 5
B8	27 ± 4
B9	68 ± 11
B10	35 ± 4
B11	112 ± 27
B12	30 ± 7
B13	68 ± 11
B14	73 ± 12
B15	24 ± 4
B16	47 ± 8

Molecular target: T1, LuxR
Assay: fluorescence anisotropy
Remark: another data set of the same source

Binder	Kd [nM]
B17	136 ± 63
